The target in the assay is Importin-α1 (UniProt P52292). The assay is described as follows: proximity ligation assay. The following applies: PLC3 cells electroporated with HEV-p6 RNA, 18 h.p.e; 12 fields of cells, mean ± S.D.; parent: est. 5.3; read off a plot.

The values that follow come from article PMC9451086.

Turning to “HEV ORF2 capsid protein, wild type (genotype 3 Kernow C-1 p6 strain) P25R; S26R; G27R”, the response was 4.8 spot/cell. As for “HEV ORF2 capsid protein, wild type (genotype 3 Kernow C-1 p6 strain) R28A; R29A; R30A; R32A; R33A”, the figure is 1.1 spot/cell.
